From the RNAGym collection of RNA variant scans (doi:10.1073/pnas.2313332121)
Variants at the floor of the assay were thinned out.

B1: TPR 5TU (parent)
chain: GGAUCUUCUCGAUCUAACAAAAAAGACAAAUCUGCCACAAAGCUUGAGAGCAUCUUCGGAUGCAGAGGCGGCAGCCUUCGGUGGCGCGAUAGCGCCAACGUUCUCAACUAUGACACGCAAAACGCGUGCUCCGUUGAAUGGAGUUUAUCAUG

Variants of: B1
Assay: polymerase ribozyme fitness, log enrichment relative to wild type (log ratio); higher = more active; in vitro selection for triplet polymerase activity
Outline: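 After PCR construction and transcription, each subunit's mutant library from a heterodimeric triplet polymerase ribozyme was annealed with a biotinylated primer, the partner subunit and triplets. Incubation was frozen, at −7 °C, and extended constructs were gel-excised, bound to streptavidin beads and amplified by RT-PCR, in one selection round done in triplicate. Fitness is the logarithm of a genotype's enrichment divided by that of the wild type, from inverse-variance-weighted replicate averages of Illumina-sequenced inputs and outputs. The base of the logarithm is 2, and genotypes needed ≥10 input reads and ≥1 read per output.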

Variant	polymerase ribozyme fitness (log ratio)
GGAUCUUCUCGAUCUACGAAAAAAGACAAAUCUGCCACAAAGCUUGAGAGCAUCUUCAGAUGCAGAGGGGGCAGCCUUCGGUGGUGCGAUAGCGCCAACGUUCUCAACUAUGACACGCAAAACGCGUGCUCCGUUGAAUGGAGUUUAUCAUG [A17C C18G G58A C69G C85U]	-2.39
GGAUCUUCUCGAUCUAACAAAAAAGACAAAUCUGCCACAAAGCUUGAGAGCAUCUUCGGAUGCAGAGGCGGCAGCCUUCGGUGGCGCGAUUGCGCCAACGUUUUCAACUAUGACACGCAAAACGCGUGCUCCGUUGAAUGGAGUAUAUCAUG [A91U C103U U145A]	≤ -4.2
GGAUCUUCUCGAUCUAACAAUAAAGACAAAUCUGCGACAAAGCUUGAGAGUAUCCUCGGAUGCAGAGGCGGCAGCCUUCGGUGGCGCGAUAUCGCCAACGUUCUCAACUAUGACACGCAAAACGCGUGCUCCGUUGAAUGGAGUUUAACAUG [A21U C36G C51U U55C G92U U148A]	≤ -4.2
GGAUCUUCUCGAUCUAACAAAAAAGACAAAUCUGCCACAAAGCUUGAGAGCAUCUUCGGAUGCAGAGGCGGCAGCAUUCGGUGGUGCGAUAGCGCCAACGUUCUCAACUAUGACACGCAAAACGCGUGCUCCGUUGAAUCGAGUUUAUCAUG [C76A C85U G140C]	-3.97
GGAUCUUCUCGAUCUAACAAAAAAUACAAAUCUGCCACAAAGCUUGAGAGCAUCUUCGGAUGCAGAGGCGGCAGCUUUCGGUGGCGCGAUAGCCCCAACGUUCUCAACUAUGACACGCAGAACGCGUGCUCCGUUGAAUGGAGUUUAUCAUG [G25U C76U G94C A120G]	-2.88
GGAUCUUCUCGAUCUAACAAAAAAGACAAAUCUGCCACAAAGCUUGAGAGCAUCUUCGGAUGCAGAGGCGGCAGCCUUCGGUGGCGCGAUAUCGCCAACGUUCUCAACUAUGACACGCAAAAAGCGUGCUCCGUUGAAUGGAGUUUAUCAUG [G92U C123A]	-0.758
GGAUCUUCUCGAUCUAACAUAAAAGACAAAUCUGCCACAUAGCUUGAGCGCAUCUUCGGAUGCAGAGGCGGCAGCCUUCGGUGGCGCGAUAGCACCAAAGUUCUCAACUAUGACACGCAAAACGCGUGCUCCGUUGAAUGGAAUUUAUCAUG [A20U A40U A49C G94A C99A G143A]	≤ -4.2
GGAUCCUCUCGAUCUAACAAAAAAGACAAAUCUGCCACAAAGCUUGAGAGCAUCUCCGGAUGCAGAGGCGGCAGCCUUCGGUGGCGCGCUAGCGCCAACGUUCUCAACUAUGACACGCAAUACGCGUGCUCCGUUGAAUGGAGUUUAUCAUG [U6C U56C A89C A121U]	-2.59
GGAUCUUCUCGAUCUAACAAAAAAGACAAAUCAGCCACGAAGCUUGAGAGCAUCUUCGGAUGCAGAGGCGGCAGCCUUCGGUGGCGCGAAAGCGCCAACGUUCUCAACUAUGACACGCAAAACGCGUGCACCGUUGAAUGGAGUUUAUCAUG [U33A A39G U90A U130A]	≤ -4.2
GGAUCUUCUCGAUCUAACAAAAAAGACAAAUCUGCCACAAAACUUGAGAGCAUCUUCGUAUGCAGAGGCGGCAGCUUUCGGUGGCGCUAUAGCGCCAACGUUGUCAACUAUGACACGCAAAACGCGUGCUCCGUUGAAUGGAGUUUAUCAUU [G42A G59U C76U G88U C103G G152U]	≤ -4.2
GGAUCUUCUCGAUCUAACAAAAAAGACAAAUCUGUCACAAAGCUUGAGAGCAUCAUCGGAUGCAGAGGCGGCAGCCUUCGGUGUCGCGAUAGCGCCAACGUUCUCAACUAUGACACGCAAAACGCGUGCUCCGUUGAAUGGAGUUUCUCAUG [C35U U55A G84U A147C]	-2.79
GGAUCUUCUCGAUCUAAUAAAAUAGACAAAUCUGCCACAAAGCUUGAGAGCAUCUUCGGAUGCAGAGGCGGCAGCCUUCGGUGGCGCGAUUGCGGCAACGUUCCCAACUAUGACACGAAAAACGCGUGCUCCGUUGAAUGGAGUUUUUCAUG [C18U A23U A91U C95G U104C C118A A147U]	≤ -4.2
GGUUCUUCUCGAUCUAACAAAAAAGGCAAAUCUGCCACAAAGCUUGAGAGCAUCUUCGGAAGCAGAGGCGGCAGCCUUCGGUGGCGCGAUAACGCCAACGUUCUCAACUAUGACACGCAAAACGCGUGCUCCGUUGAAUGGAGUUUAUCAUG [A3U A26G U61A G92A]	≤ -4.2
GGAUCUUCUCGAUCUAACAAAAAAGACAAAUCUGCCACAAAGCUUGAGAGCAUCUUCGGAUGCAGAGGCGGCAGCCUUCGGUGGCGCGAUAGCGCCAACGUUCUCAACUAUGACACGUAAAACGCGUGCUCCGUUGAAUUGAGUUUAUCAUG [C118U G140U]	-3.11
GGAUCUUCUCGAUGUAACAAAAAAGACAAAUCUGCCACAAAGCUUGAGAGCAUCUUCGGAUGCAGAGGCGGCAGCCUUCGGUGGCGCGAUAGCGCCAACGUUCUCAACUAUGACACGCAAAACGCGUGCUCCUUUGAAUGGAGUUUAUCAUG [C14G G133U]	≤ -4.2
GGAUCUUCUCGAUCUAACAAAAAAGACAAAUCUGCCAUAAAGCUUGAGCGCAUCUUCGGAUGCAGAGGCGGCAGCCUUCGGUGGUGCGAUAUCGCCAACGUUAUCAACUACGACACGCAAAACGCGUGCUCCGUUGAAUGGAGCUUAUCAUG [C38U A49C C85U G92U C103A U111C U144C]	≤ -4.2
GGAUCUUCUCGAUCUAACAAAAAAGACAAAUCUGCCACAAAGCUAGAGAGCAUCUUCGGAUGCAGAGGCGGCAGCCUUCGGUGGCGCGAUAGCGCCAACGUUCUCAACUAUGACACGCAAAACGCGUGCUCCACUGAAUGGAGUUUAUCAUG [U45A G133A U134C]	≤ -4.2
GGAUCUUCUCGAUCUAACAAAAAAGACAAAUCUGCCACAAAGCUUGAGAGCAUCUUCUGAUGCAGAGGCGGCAGCCUUCGGUGGAGCGAUAGCGGUAACGUUCUCAACUAUGACACGCAAAACGCGUGCUCCGUUGAAUGGAGUUUAUCAUG [G58U C85A C95G C96U]	-3.24
GGAUCUCCUCGAUCUAACACAAAAGACAAAUCUGCCACAAAGCUUGAGAGCAUCUUCGGAUGCAGAGGCGGCAGCCUUCGGUGGCGCGGUAGCGCAAACGUUCUCAACUACGACACGUAAAACGCGUGCUCCGUUGAAUGGAGUUUAUCAUG [U7C A20C A89G C96A U111C C118U]	≤ -4.2
